Data on 40 variants can be found in the Human Domainome abundance scans (Beltran et al. 2025).

± gives the uncertainty stated by the source.

B1: RNA-binding E3 ubiquitin-protein ligase MEX3C, residues 325 to 391; numbered along this chain, Q5U5Q3 (parent)
chain: GQTTVQVRVPYRVVGLVVGPKGATIKRIQQQTHTYIVTPSRDKEPVFEVTGMPENVDRAREEIEMHI

This data set covers variants of B1. Briefly: abundance fitness (aPCA) (normalised: wild type 0, dead -1); higher = more abundant; growth selection in yeast, the domain comes from the species named. The note with it: Homo sapiens.
Consider GQTTVQVRVPYRVVGLVVGPKGATIKRIQQQTHTYIVTPSRQKEPVFEVTGMPENVDRAREEIEMHI [D42Q], for which the abundance fitness was -0.122 ± 0.11. Next, GQTTVQVRVPYRVVGLVVGPKGATIKRIQQQTHTYIVTPSRLKEPVFEVTGMPENVDRAREEIEMHI [D42L]: -0.263 ± 0.066. As to GQTTVQVRVPYRVVGLVVGPKGATIKRIQQQTHTYIVTPSRAKEPVFEVTGMPENVDRAREEIEMHI [D42A], the abundance fitness was -0.292 ± 0.056. As for GQTTVQVRVPYRVVGLVVGPKGATIKRIQQQTHTYIVTPSRGKEPVFEVTGMPENVDRAREEIEMHI [D42G], the abundance fitness came to 0.099 ± 0.04. Consider GQTTVQVRVPYRVVGLVVGPKGATIKRIQQQTHTYIVTPSRPKEPVFEVTGMPENVDRAREEIEMHI [D42P], for which the abundance fitness is -1.01 ± 0.31. Turning to GQTTVQVRVPYRVVGLVVGPKGATIKRIQQQTHTYIVTPSRSKEPVFEVTGMPENVDRAREEIEMHI [D42S], the abundance fitness was -0.332 ± 0.08. In the case of GQTTVQVRVPYRVVGLVVGPKGATIKRIQQQTHTYIVTPSRKKEPVFEVTGMPENVDRAREEIEMHI [D42K], the abundance fitness is -0.139 ± 0.11.

For GQTTVQVRVPYRVVGLVVGPKGATIKRIQQQTHTYIVTPSRHKEPVFEVTGMPENVDRAREEIEMHI [D42H], the abundance fitness is -0.191 ± 0.091. Next, GQTTVQVRVPYRVVGLVVGPKGATIKRIQQQTHTYIVTPSRYKEPVFEVTGMPENVDRAREEIEMHI [D42Y]: -0.181 ± 0.1; GQTTVQVRVPYRVVGLVVGPKGATIKRIQQQTHTYIVTPSRMKEPVFEVTGMPENVDRAREEIEMHI [D42M]: -0.128 ± 0.089; GQTTVQVRVPYRVVGLVVGPKGATIKRIQQQTHTYIVTPSRRKEPVFEVTGMPENVDRAREEIEMHI [D42R]: -0.408 ± 0.052. Turning to GQTTVQVRVPYRVVGLVVGPKGATIKRIQQQTHTYIVTPSRFKEPVFEVTGMPENVDRAREEIEMHI [D42F], the abundance fitness was -0.198 ± 0.17. GQTTVQVRVPYRVVGLVVGPKGATIKRIQQQTHTYIVTPSRIKEPVFEVTGMPENVDRAREEIEMHI [D42I]: the abundance fitness was -0.342 ± 0.14.

With GQTTVQVRVPYRVVGLVVGPKGATIKRIQQQTHTYIVTPSRNKEPVFEVTGMPENVDRAREEIEMHI [D42N], the abundance fitness is -0.071 ± 0.1. To GQTTVQVRVPYRVVGLVVGPKGATIKRIQQQTHTYIVTPSRTKEPVFEVTGMPENVDRAREEIEMHI [D42T] belongs -0.245 ± 0.078; to GQTTVQVRVPYRVVGLVVGPKGATIKRIQQQTHTYIVTPSRVKEPVFEVTGMPENVDRAREEIEMHI [D42V], -0.465 ± 0.069; to GQTTVQVRVPYRVVGLVVGPKGATIKRIQQQTHTYIVTPSRWKEPVFEVTGMPENVDRAREEIEMHI [D42W], -0.335 ± 0.088. For the variant GQTTVQVRVPYRVVGLVVGPKGATIKRIQQQTHTYIVTPSRCKEPVFEVTGMPENVDRAREEIEMHI [D42C], the abundance fitness was -0.425 ± 0.12. Consider GQTTVQVRVPYRVVGLVVGPKGATIKRIQQQTHTYIVTPSRDAEPVFEVTGMPENVDRAREEIEMHI [K43A], for which the abundance fitness was determined as 0.058 ± 0.05.

For the variant GQTTVQVRVPYRVVGLVVGPKGATIKRIQQQTHTYIVTPSRDTEPVFEVTGMPENVDRAREEIEMHI [K43T], the abundance fitness is -0.05 ± 0.066.

For GQTTVQVRVPYRVVGLVVGPKGATIKRIQQQTHTYIVTPSRDWEPVFEVTGMPENVDRAREEIEMHI [K43W], the abundance fitness was -0.435 ± 0.072. Regarding GQTTVQVRVPYRVVGLVVGPKGATIKRIQQQTHTYIVTPSRDMEPVFEVTGMPENVDRAREEIEMHI [K43M], the abundance fitness worked out at 0.125 ± 0.078. For the variant GQTTVQVRVPYRVVGLVVGPKGATIKRIQQQTHTYIVTPSRDCEPVFEVTGMPENVDRAREEIEMHI [K43C], the abundance fitness is -0.1 ± 0.067. Regarding GQTTVQVRVPYRVVGLVVGPKGATIKRIQQQTHTYIVTPSRDHEPVFEVTGMPENVDRAREEIEMHI [K43H], the abundance fitness turned out to be 0.012 ± 0.093. As to GQTTVQVRVPYRVVGLVVGPKGATIKRIQQQTHTYIVTPSRDSEPVFEVTGMPENVDRAREEIEMHI [K43S], the abundance fitness was determined as 0.12 ± 0.048. To GQTTVQVRVPYRVVGLVVGPKGATIKRIQQQTHTYIVTPSRDPEPVFEVTGMPENVDRAREEIEMHI [K43P] belongs -0.565 ± 0.1; to GQTTVQVRVPYRVVGLVVGPKGATIKRIQQQTHTYIVTPSRDQEPVFEVTGMPENVDRAREEIEMHI [K43Q], -0.059 ± 0.072. To GQTTVQVRVPYRVVGLVVGPKGATIKRIQQQTHTYIVTPSRDREPVFEVTGMPENVDRAREEIEMHI [K43R] belongs -0.133 ± 0.039; to GQTTVQVRVPYRVVGLVVGPKGATIKRIQQQTHTYIVTPSRDFEPVFEVTGMPENVDRAREEIEMHI [K43F], -0.431 ± 0.13.

On to GQTTVQVRVPYRVVGLVVGPKGATIKRIQQQTHTYIVTPSRDVEPVFEVTGMPENVDRAREEIEMHI [K43V], for which the abundance fitness was -0.423 ± 0.069.

Take GQTTVQVRVPYRVVGLVVGPKGATIKRIQQQTHTYIVTPSRDGEPVFEVTGMPENVDRAREEIEMHI [K43G]: the abundance fitness is 0.108 ± 0.035.

On to GQTTVQVRVPYRVVGLVVGPKGATIKRIQQQTHTYIVTPSRDNEPVFEVTGMPENVDRAREEIEMHI [K43N], for which the abundance fitness was -0.093 ± 0.11. To GQTTVQVRVPYRVVGLVVGPKGATIKRIQQQTHTYIVTPSRDDEPVFEVTGMPENVDRAREEIEMHI [K43D] belongs 0.131 ± 0.078; to GQTTVQVRVPYRVVGLVVGPKGATIKRIQQQTHTYIVTPSRDEEPVFEVTGMPENVDRAREEIEMHI [K43E], -0.191 ± 0.072. To GQTTVQVRVPYRVVGLVVGPKGATIKRIQQQTHTYIVTPSRDYEPVFEVTGMPENVDRAREEIEMHI [K43Y] belongs -0.46 ± 0.15. Turning to GQTTVQVRVPYRVVGLVVGPKGATIKRIQQQTHTYIVTPSRDLEPVFEVTGMPENVDRAREEIEMHI [K43L], the abundance fitness is -0.579 ± 0.081. Consider GQTTVQVRVPYRVVGLVVGPKGATIKRIQQQTHTYIVTPSRDIEPVFEVTGMPENVDRAREEIEMHI [K43I], for which the abundance fitness was -0.583 ± 0.14. As to GQTTVQVRVPYRVVGLVVGPKGATIKRIQQQTHTYIVTPSEDKEPVFEVTGMPENVDRAREEIEMHI [R41E], the abundance fitness was -0.021 ± 0.074. GQTTVQVRVPYRVVGLVVGPKGATIKRIQQQTHTYIVTPSWDKEPVFEVTGMPENVDRAREEIEMHI [R41W]: the abundance fitness was -0.245 ± 0.073. Turning to GQTTVQVRVPYRVVGLVVGPKGATIKRIQQQTHTYIVTPSADKEPVFEVTGMPENVDRAREEIEMHI [R41A], the abundance fitness is 0.017 ± 0.056.
